US20260102474A1 (DEUTSCHES KREBSFORSCHUNGSZENTRUM STIFTUNG DES FFENTLICHEN …, published 2026)

Assays:
Assay in all cases: ELISA on coated his-tagged Fc receptor, anti-human-Fc HRP detection
[1] = biological target: his-tagged FcγRI protein (R&D Systems) (UniProt P12314 16-288)
[2] = biological target: T1, his-tagged FcγRIIb protein (R&D Systems) (UniProt P31994 46-217)
T1 sequence (looked up): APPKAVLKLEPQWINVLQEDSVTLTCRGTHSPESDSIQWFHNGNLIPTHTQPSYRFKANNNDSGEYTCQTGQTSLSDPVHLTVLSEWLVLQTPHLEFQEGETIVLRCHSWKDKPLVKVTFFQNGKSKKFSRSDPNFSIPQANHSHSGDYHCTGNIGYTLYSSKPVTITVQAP

[3] = biological target: T2, his-tagged FcγRIIa protein (R&D Systems) (UniProt P12318 36-218)
T2 sequence (looked up): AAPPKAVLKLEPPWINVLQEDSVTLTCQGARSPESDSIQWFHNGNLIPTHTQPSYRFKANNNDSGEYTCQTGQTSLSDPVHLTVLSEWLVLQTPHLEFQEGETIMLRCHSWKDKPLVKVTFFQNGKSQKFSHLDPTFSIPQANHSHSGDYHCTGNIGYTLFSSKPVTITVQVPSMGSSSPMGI

[4] = biological target: his-tagged FcRIIIa protein (R&D Systems) (UniProt P08637 17-208)
Sequence of his-tagged FcRIIIa protein (R&D Systems) (P08637 17-208 limits assumed): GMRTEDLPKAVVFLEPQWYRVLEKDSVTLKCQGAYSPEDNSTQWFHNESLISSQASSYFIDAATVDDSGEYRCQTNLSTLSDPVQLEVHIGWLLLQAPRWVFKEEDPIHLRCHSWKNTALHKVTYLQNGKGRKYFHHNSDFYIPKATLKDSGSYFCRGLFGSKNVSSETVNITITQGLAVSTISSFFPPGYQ

Measured: binding result

Sequence of his-tagged FcγRI protein (R&D Systems) (P12314 16-288 limits assumed): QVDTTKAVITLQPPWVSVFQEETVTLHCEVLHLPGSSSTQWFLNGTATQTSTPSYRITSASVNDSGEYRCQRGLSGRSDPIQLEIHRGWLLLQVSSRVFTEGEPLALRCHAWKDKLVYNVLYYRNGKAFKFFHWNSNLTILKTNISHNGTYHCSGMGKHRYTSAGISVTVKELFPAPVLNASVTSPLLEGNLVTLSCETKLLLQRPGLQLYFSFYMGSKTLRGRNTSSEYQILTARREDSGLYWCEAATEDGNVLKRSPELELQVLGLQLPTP

B1: ACE2-M1-FcKO (Fc fusion)
chain: STIEEQAKYFLDKFNHEAEDLFYQSSLASWNYNTNITEENVQNMNNAGDKWSAFLKEQSTYAQMYPLQEIQNLTVKLQLQALQQNGSSVLSEDKSKRLNTILNTMSTIYSTGKVCNPDNPQECLLLEPGLNEIMANSLDYNERLWAWESWRSEVGKQLRPLYEEYVVLKNEMARANHYEDYGDYWRGDYEVNGVDGYDYSRGQLIEDVEHTFEEIKPLYEHLHAYVRAKLMNAYPSYISPIGCLPAHLLGDMWGRFWTNLYSLTVPFGQKPNIDVTDAMVDQAWDAQRIFKEAEKFFVSVGLPNMTQGFWEYSMLTDPGNVQKAVCHPTAWDLGKGDFRILMCTKVTMDDFLTAHREMGRIQYDMAYAAQPFLLRNGANEGFHEAVGEIMSLSAATPKHLKSIGLLSPDFQEDNETEINFLLKQALTIVGTLPFTYMLEKWRWMVFKGEIPKDQWMKKWWEMKREIVGVVEPVPHDETYCDPASLFHVSNDYSFIRYYTRTLYQFQFQEALCQAAKHEGPLHKCDISNSTEAGQKLFNMLRLGKSEPWTLALENVVGAKNMNVRPLLNYFEPLFTWLKDQNKNSFVGWSTDWSPYADQSIKVRISLKSALGDKAYEWNDNEMYLFRSSVAYAMRQYFLKVKNQMILFGEEDVRVANLKPRISFNFFVTAPKNVSDIIPRTEVEKAIRMSRSRINDAFRLNDNSLEFLGIQPTLGPPNQPPVSSGGGGSGGGGSGGGGSEPKSSDKTHTCPPCPAPPVAGPSVFLFPPKPKDTLMISRTPEVTCVVVGVSHEDPEVKFNWYVDGVEVHNAKTKPREEQYNSTYRVVSVLTVLHQDWLNGKEYKCKVSNKQLPSPIEKTISKAKGQPGQPREPQVYTLPPSRDELTKNQVSLTCLVKGFYPSDIAVEWESNGQPENNYKTTPPVLDSDGSFFLYSKLTVDKSRWQQGNVFSCSVMHEALHNHYTQKSLSLSPGK
notes: also called M1 version
no binding: all assays above
